Results: the supplement of paper PMC7125110
± gives the standard error. For some assays here: Variants at the floor of the assay were thinned out.

B1: glmS ribozyme (parent)
chain: AUAAAAGCGCCAGAACUACAGAAAUGUAGUUGACGAGGAGGAGGUUUAUCGAAUUUUCGGCGGAUGCCUCCAAA

Columns and labels:
Settings in all cases: with glucosamine-6-phosphate
glucosamine-6-phosphate [1] = variants of: B1; assay: kcat; higher = faster cleavage; RNA array
Summary of the method: (§1)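 Barcoded ribozyme variants, transcribed in situ by E. coli RNA polymerase on sequenced MiSeq chips, were followed via a hybridised Cy3 probe at 37 °C. Glucosamine-6-phosphate ranged from 40 μM to 10 mM in HEPES/KCl/Mg(OAc)2 buffer. kobs came from decay fits to per-tile medians, and kcat and KM from weighted Michaelis–Menten fits.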

glucosamine-6-phosphate [2] = variants of: B1; assay: self-cleavage kobs at 160 uM GlcN6P; higher = faster cleavage; RNA array
Summary of the method: as §1

glucosamine-6-phosphate [3] = variants of: B1; assay: self-cleavage kobs at 40 uM GlcN6P; higher = faster cleavage; RNA array
Summary of the method: as §1

glucosamine-6-phosphate [4] = variants of: B1; assay: self-cleavage kobs at 10000 uM GlcN6P; higher = faster cleavage; RNA array
Summary of the method: as §1

glucosamine-6-phosphate [5] = variants of: B1; assay: KM; higher = weaker cofactor use; RNA array
Summary of the method: as §1

glucosamine-6-phosphate [6] = variants of: B1; assay: self-cleavage kobs at 2500 uM GlcN6P; higher = faster cleavage; RNA array
Summary of the method: as §1

glucosamine-6-phosphate [7] = variants of: B1; assay: self-cleavage kobs at 640 uM GlcN6P; higher = faster cleavage; RNA array
Summary of the method: as §1

Variant	kcat (glucosamine-6-phosphate [1]) [s⁻¹]	self-cleavage kobs at 160 uM GlcN6P (glucosamine-6-phosphate [2]) [s⁻¹]	self-cleavage kobs at 40 uM GlcN6P (glucosamine-6-phosphate [3]) [s⁻¹]	self-cleavage kobs at 10000 uM GlcN6P (glucosamine-6-phosphate [4]) [s⁻¹]	KM (glucosamine-6-phosphate [5]) [µM]	self-cleavage kobs at 2500 uM GlcN6P (glucosamine-6-phosphate [6]) [s⁻¹]	self-cleavage kobs at 640 uM GlcN6P (glucosamine-6-phosphate [7]) [s⁻¹]
A33U G66U	1.11e-05 ± 1.2e-06	< 1e-05					
A33U C61G	< 1e-05		< 1e-05	< 1e-05			
A33U U69C	7.22e-05 ± 1.2e-06			6.49e-05 ± 9.5e-06	1080 ± 92	5.12e-05 ± 1.2e-05	
G32C G37C	< 1e-05		< 1e-05	< 1e-05			
A33U C67A	7.68e-05 ± 3.3e-06			5.17e-05 ± 6e-06	4870 ± 530	2.58e-05 ± 7.7e-06	
A33U C67U	4.33e-05 ± 9.7e-06			4.16e-05 ± 7.3e-06		2.49e-05 ± 6.9e-06	3.39e-05 ± 1.5e-05
A33G C70A	1.84e-05 ± 4.6e-06						
G32C C61G	< 1e-05		< 1e-05				< 1e-05
G32C A48U	< 1e-05		< 1e-05				
A33G A64G C70A	5.02e-05 ± 9.3e-06						
G32A U69A	9.02e-05 ± 2.8e-05			7.45e-05 ± 1.1e-05		9.73e-05 ± 1.8e-05	
A33U U55C C61A	1.69e-05 ± 5.1e-06						
G32U C67A	0.000412 ± 4.2e-05			0.000296 ± 2.2e-05	4200 ± 780	0.00014 ± 1.6e-05	5.83e-05 ± 6.7e-06
G32C U54G	9.47e-05 ± 8e-06			7.5e-05 ± 8.5e-06	2550 ± 810	5.12e-05 ± 1.5e-05	
A33U G59U	< 1e-05		< 1e-05			< 1e-05	< 1e-05
G32C C58G	8.83e-05 ± 1.4e-05			6.81e-05 ± 9.4e-06	2580 ± 1100	4.79e-05 ± 7.8e-06	
C34G G38A C58A C68G	5.13e-05 ± 7.5e-06					4.79e-05 ± 1.7e-05	5.22e-05 ± 1.6e-05
G32A U65A	0.000307 ± 0.0001			0.000243 ± 4.4e-05		0.000104 ± 1.4e-05	5.66e-05 ± 1.2e-05
A33U U55A	0.000138 ± 2.3e-05			0.000105 ± 7.9e-06	2730 ± 1200	7.49e-05 ± 6.9e-06	
A33U A39C	1.74e-05 ± 2.5e-06				3650 ± 1600		
G32A G66C	5.52e-05 ± 1.5e-06			4.9e-05 ± 1.4e-05	1250 ± 160	3.72e-05 ± 1.6e-05	
C34A G51C	< 1e-05		< 1e-05	< 1e-05			
